Paper PMC3757403

Target: de2-7EGFR (UniProt P00533)
Experiment: non-reducing SDS-PAGE and Western blot of disulfide-bonded dimers; cells washed and lysed in RIPA buffer with 10 mM iodoacetamide; non-reducing Laemmli buffer; blot probed with mAb806

Substance: de2-7EGFR (from UniProt P00533 25-1210) (receptor)
- dimer as proportion of the total species: 25%
